Tests used:
[1] = Volume mean particle diameter by dynamic light scattering particle size analyzer; assay type: physicochemical
Method: The volume mean particle diameter of liposomes in the examplesandthecomparativeexamplesdescribedbelowwasmeasured by the following method.
The W1/O emulsion was diluted with a chloroform/hexane mixed solvent (volume ratio: 4/6, the specific gravity was made equal to that of the inner aqueous phase) to 10 times, then a particle size distribution was measured with a dynamic light scattering nanotrack particle size analyzer (UPA-EX150, manufactured by Nikkiso Co., Ltd.), and based on this particle size distribution, a volume mean particle diameter was calculated.
As for the volume mean particle diameter of the specific dispersing agent which forms molecular aggregates, a liposome dispersion (also referred to as a “suspension” hereinafter) prepared in each of the following examples was subjected to the measurement as it was, using the same device. That is to say, a suspension of liposome particles prepared was diluted with a phosphoric acid buffer saline solution (PBS) to 25 times, then a particle size distribution was measured using a dynamic light scattering nanotrack particle size analyzer (UPA-EX150, manufactured by Nikkiso Co., Ltd.), and based on this particle size distribution, a volume mean particle diameter was calculated.

[2] = in an aqueous solvent; background statement; cited from earlier work

sodium caseinate
particle size distribution of associated substance of molecular aggregates ([1]; solution containing only casein having a higher concentration): 150 nm
main particle size distribution (volume mean particle diameter) ([1]; solution containing only the dispersing agent): 15 nm
volume mean particle diameter of molecular aggregates (submicelles) [2]: about 15 nm
volume mean particle diameter of particles of associated molecular aggregates [2]: 100 to 200 nm
